A word on the Ki: it is the equilibrium dissociation constant of an inhibitor or competing ligand from its target. Read a low Ki as tighter binding.

The target in the test is human factor Xa (Enzyme Research Laboratories, Inc.) (human) (UniProt P00742). Briefly: chromogenic FXa inhibition.
Chain of human factor Xa (Enzyme Research Laboratories, Inc.) (human) (P00742 41-179 limits assumed, chain 1 of 2): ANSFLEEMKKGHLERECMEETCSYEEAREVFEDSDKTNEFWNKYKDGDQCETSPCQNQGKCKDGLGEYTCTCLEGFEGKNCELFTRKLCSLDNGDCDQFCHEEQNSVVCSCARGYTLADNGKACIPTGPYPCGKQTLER
Chain of human factor Xa (Enzyme Research Laboratories, Inc.) (human) (P00742 235-488 limits assumed, chain 2 of 2): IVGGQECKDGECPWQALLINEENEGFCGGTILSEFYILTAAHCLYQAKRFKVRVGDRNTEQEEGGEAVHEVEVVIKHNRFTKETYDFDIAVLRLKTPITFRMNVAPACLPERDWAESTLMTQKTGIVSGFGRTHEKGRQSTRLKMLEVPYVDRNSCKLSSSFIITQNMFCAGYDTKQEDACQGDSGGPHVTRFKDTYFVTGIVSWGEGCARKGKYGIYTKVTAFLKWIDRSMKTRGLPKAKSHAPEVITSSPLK

Substance “3-phenoxyproprionic-Y-Chg-R-NH2 (peptide)” registered a Ki below 100 µM. In turn, 5-Bzim-CO-Chg-R-L-P-NH2 (peptide) came in with a Ki below 100 µM. The substance 5-Hic-Chg-R-NH2 (peptide) displayed a Ki below 100 µM.

“(2-benzofuroyl)-Phe(pNH2)-Chg-Dab(CH═N(CH3)2)-Leu-Pro-NH2 (peptide)”: the Ki was below 100 µM.

“(2-benzofuroyl)-Tyr-Chg-Arg-Pen-Pro-NH2 (peptide)” yielded an inhibitory constant (Ki) below 100 µM.

As for “(2-benzofuroyl)-pAph-Chg-Arg-Pen(CH2COOH)-Pro-NH2 (peptide)”, the Ki was below 100 µM. The value for “(2-benzofuroyl)-pAph-Chg-PalMe(3)-NH2 (peptide)” was below 100 µM; that for “(2-benzofuroyl)-pAph-Chg-PalMe(3)-Pen(CH2COOH)-Pro-NH2 (peptide)” was below 100 µM. Substance “(2-fluorobenzoyl)-pAph-Chg-NH-(4-trimethyl-ammonium benzyl) (peptide)” showed a Ki below 100 µM. Turning to “(2-furoyl)-pAph-Chg-NH-1-[3(N-methylpyridyl)]-1-(methylacetate)ethyl (peptide)”, the inhibitory constant (Ki) was below 100 µM. Substance “(2-furoyl)-pAph-Chg-NH-(4-trimethyl-ammonium benzyl) (peptide)” displayed an inhibition constant Ki below 100 µM. The value for “(2-pyridoyl)-pAph-Chg-PalMe(3)-NH2 (peptide)” was below 100 µM; that for “(2-quinolinoyl)-pAph-Chg-PalMe(3)-NH2 (peptide)” was below 100 µM. Next, “(2-thienylacetyl)-pAph-Chg-NH-(4-trimethyl-ammonium benzyl) (peptide)”: below 100 µM. The value for “(3,4-dichlorobenzoyl)-pAph-Chg-NH-(4-trimethyl-ammonium benzyl) (peptide)” was below 100 µM; that for “(3-pyridoyl)-Nal(2)-Chg-Arg-Leu-Pro-NH2 (peptide)” was below 100 µM; that for “(5-pyrazinoyl)Nal(2)-Chg-Arg-Leu-Pro-NH2 (peptide)” was below 100 µM. The substance “(Alloc)-pAph-Chg-Arg-Leu-Pro-NH2 (peptide)” showed a Ki below 100 µM. Next, “(Ethoxycarbonyl)-pAph-Chg-NH-(4-trimethyl-ammonium benzyl) (peptide)”: below 100 µM; “(N-(5-methyl-2-thienoyl)-pAph-Chg-NH-(4-trimethyl-ammonium benzyl) (peptide)”: below 100 µM; (iBu)Y-I-R-OH (peptide): below 100 µM. Next, “(pOH)C6H4-CH2CH2(OH)-CO-I-R-L-Sar-NH2 (peptide)”: below 100 µM; “(t-Butoxycarbonyl)-pAph-Chg-NH-(4-trimethyl-ammonium benzyl) (peptide)”: below 100 µM. Next, “Ac-(3,5,5-Me-3-nHexyl)Y-I-R-NH2 (peptide)”: below 100 µM. In the case of Ac-(4-MeO-Bzl)Y-I-R-NH2 (peptide), the Ki is below 100 µM. The value for Ac-(4-pyridil-CH2-)Y-I-R-NH2 (peptide) was below 100 µM; that for “Ac-(Bzl)G-(Chx)Gly-(3-GuanidoPropyl)G-NH2 (peptide)” was below 100 µM. Take Ac-(Bzl)Y-I-R-NH2 (peptide): the Ki is below 100 µM. The value for Ac-(iBu)F(pNH2)-Chg-R-NH2 (peptide) was below 100 µM; that for Ac-(iBu)Y-Chg-R-NH2 (peptide) was below 100 µM. Next, Ac-(iBu)Y-I-R-NH2 (peptide): below 100 µM; Ac-(iBu-Nal(2)-Chg-R-L-P-NH2 (peptide): below 100 µM; Ac-(nBu)Y-I-R-NH2 (peptide): below 100 µM. Next, “Ac-D-pAph-Chg-Arg-(carboxyethyl)Gly-Pro-NH2 (peptide)”: below 100 µM; “Ac-D-pAph-Chg-Arg-Cys-(CH2-COOH)-Pro-NH2 (peptide)”: below 100 µM.

For Ac-D-pAph-Chg-Arg-Gla-Pro-NH2 (peptide), the Ki was below 100 µM. The value for Ac-D-pAph-Chg-Arg-Leu-Pro-NH2 (peptide) was below 100 µM.

(Values after patent US6759384.)
